Reference: article PMC9428257 (2022)

B1: yeast-displayed wild-type sBCMA (human BCMA extracellular domain, Met1-Ala54) [human] / human APRIL (a proliferation-inducing ligand) [human] (parent complex)
chain 1: MLQMAGQCSQNEYFDSLLHACIPCQLRCSSNTPPLTCQRYCNASVTNSVKGTNA
chain 2: AVLTQKQKKQHSVLHLVPINATSKDDSDVTEVMWQPALRRGRGLQAQGYGVRIQDAGVYLLYSQVLFQDVTFTMGQVVSREGQGRQETLFRCIRSMPSHPDRAYNSCYSAGVFHLHQGDILSVIIPRARAKLNLSPHGTFLGFVKL

Variants of: B1
Experiment: flow cytometry binding curve of yeast-displayed sBCMA

Q: Which screen value does the source give for chain 1 S16G, chain 1 H19Y, chain 1 T36A here?
A: 325
